Measured values: publication PMC2795092

Molecular target: purified full-length human hexahistidine-tagged 14-3-3η (human) (UniProt Q04917)
Assay: pull-down

Chain of UniProt Q04917 (Q04917 whole entry): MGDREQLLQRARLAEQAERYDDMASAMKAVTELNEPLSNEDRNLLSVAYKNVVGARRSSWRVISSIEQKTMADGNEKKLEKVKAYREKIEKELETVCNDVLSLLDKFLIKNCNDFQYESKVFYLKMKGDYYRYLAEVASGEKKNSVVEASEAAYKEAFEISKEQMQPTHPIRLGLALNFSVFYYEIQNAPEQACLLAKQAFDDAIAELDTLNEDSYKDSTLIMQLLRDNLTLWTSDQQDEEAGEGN

densitometry of bound [35S] AR: 15000
Substance: in vitro translated 35S-labeled androgen receptor (AR) (from UniProt P10275 1-920)
